pKd: −log10 of the molar value.
Molecular target: von Willebrand factor A1 domain (Homo sapiens) (UniProt P04275)
Assay: SPR
Conditions: 37 C; for pKd: phosphate buffer 155 mM NaCl, 0.05% NP-40; for Kd: likely pM (protein 0.078-5 nM)

Sequence: CGAGGCTCCCCANCTTTCGCCNACANCCGAGGGAGCCTCG [vWF1-DsDsDs-GC]
- pKd (n = Ds at 3 positions): 8.97

Sequence: CGAGGCTCCCCANCTTTCGCCNACANCCGAGGGAGCCTCGCGCGTAGCG [vWF1-DsDsDs-mhGC]
- pKd (n = Ds at 3 positions, koff 0.00159 1/s, printed as GCmh): 9.11

Sequence: CGCGGCCGANGAGCACCGAAGGTCTCAACGNTGGAGGCCGCGCGCGTAGCG [vWF2-DsDsDs-2mhGC]
- Kd (n = Ds): 6.13e+07 pM

Sequence: CGTGACCGANGAGCACCTAACNGGTCTCAACGNTGGAGGTCACG [vWF2-DsDsDs]
- Kd (n = Ds at 3 positions): 7.49e+07 pM

Sequence: TGAGACTCCCCANCTTTCGCCNACANCCGAGGGAGTCTCA [vWF1-DsDsDs]
- pKd (n = Ds (7-(2-thienyl)-3H-imidazo[4,5-b]pyridin-3-yl) at 3 positions): 8.99

Source: patent US20180305695
